Molecular target: cis-3-chloroacrylic acid dehalogenase (native)
Test: crystal structure

stoichiometry N: 3
Substance: cis-3-chloroacrylic acid dehalogenase (native) (enzyme)

— publication PMC3025062
